Laboratory results reported in patent US9599605 (BOSTON MEDICAL CENTER, dated 2017).

B1: C-terminally SNAP-tagged N-terminally truncated human PLA2g6(L)^179-806 (enzyme)
chain: MDVTDYKGETVFHYAVQGDNSQVLQLLGRNAVAGLNQVNNQGLTPLHLACQLGKQEMVRVLLLCNARCNIMGPNGYPIHSAMKFSQKGCAEMIISMDSSQIHSKDPRYGASPLHWAKNAEMARMLLKRGCNVNSTSSAGNTALHVAVMRNRFDCAIVLLTHGANADARGEHGNTPLHLAMSKDNVEMIKALIVFGAEVDTPNDFGETPTFLASKIGRLVTRKAILTLLRTVGAEYCFPPIHGVPAEQGSAAPHHPFSLERAQPPPISLNNLELQDLMHISRARKPAFILGSMRDEKRTHDHLLCLDGGGVKGLIIIQLLIAIEKASGVATKDLFDWVAGTSTGGILALAILHSKSMAYMRGMYFRMKDEVFRGSRPYESGPLEEFLKREFGEHTKMTDVRKPKVMLTGTLSDRQPAELHLFRNYDAPETVREPRFNQNVNLRPPAQPSDQLVWRAARSSGAAPTYFRPNGRFLDGGLLANNPTLDAMTEIHEYNQDLIRKGQANKVKKLSIVVSLGTGRSPQVPVTCVDVFRPSNPWELAKTVFGAKELGKMVVDCCTDPDGRAVDRARAWCEMVGIQYFRLNPQLGTDIMLDEVSDTVLVNALWETEVYIYEHREEFQKLIQLLLSP
modifications: covalently immobilized on SNAP Capture Resin through the SNAP tag ; Covalently immobilised on SNAP Capture Resin through the C-terminal SNAP tag, which is not in the letters
notes: Mimics the N-terminally truncated protein expected in KO^Ex2 mice; not shown: C-terminal SNAP tag and the vector linker of pSNAP-tag(m) (New England Biolabs)

Experiments:
[1] = molecular target: Endogenous mouse STIM1 (mouse) (UniProt P70302); assay: cell-based or functional assay
[2] = molecular target: T1, Overexpressed ^YFPSTIM1 from extracts of FreeStyle 293-F cells (UniProt Q13586 23-685); assay: pull-down on SNAP-immobilized bait, Western blot
T1 construct: not shown: YFP of the YFPSTIM1 construct (gift from Dr. T. Meyer)
Description: (§1) A: with full-sized original images of immunoblots (B and C).
(§2) The cells were harvested 48 h after transfection, lysed on ice in lysis buffer (25 mM Tris-HCl, pH 7.5, 150 mM NaCl, 0.5% NP-40, 5% glycerol, 2 mM DTT, 1×HALT Protease inhibitors cocktail (Pierce), 1 mM PMSF) and the extracts were cleared by centrifugation for 15 min at 16,000 g at 4° C. Each SNAP-tagged protein was covalently immobilized by incubating ~800 µL of the extract with 25 µL bed volume of SNAP Capture Resin (New England Biolabs), equilibrated with Resin Wash Buffer (RWB; 25 mM Tris-HCl, pH 7.5, 150 mM NaCl, 5% glycerol), for 16 h at 6° C. Control sample of each extract was incubated under the same conditions in the absence of the resin. Following immobilization, the resin was collected in the mini spin column (Pierce), washed 5 times on ice with 600 µL of RWB, combined with the prey protein extract, and incubated with orbital mixing at ~600-800 rpm for 6 h at 4° C.

[3] = molecular target: T2, Endogenous STIM1 from extracts of Jurkat T lymphocytes (human, UniProt Q13586 23-685); assay: pull-down on SNAP-immobilized bait, Western blot
T2 construct: Prey protein in a cell lysate, detected by Western blot
Description: as §1, §2

Sequence of Endogenous mouse STIM1 (mouse) (P70302 23-685 limits assumed): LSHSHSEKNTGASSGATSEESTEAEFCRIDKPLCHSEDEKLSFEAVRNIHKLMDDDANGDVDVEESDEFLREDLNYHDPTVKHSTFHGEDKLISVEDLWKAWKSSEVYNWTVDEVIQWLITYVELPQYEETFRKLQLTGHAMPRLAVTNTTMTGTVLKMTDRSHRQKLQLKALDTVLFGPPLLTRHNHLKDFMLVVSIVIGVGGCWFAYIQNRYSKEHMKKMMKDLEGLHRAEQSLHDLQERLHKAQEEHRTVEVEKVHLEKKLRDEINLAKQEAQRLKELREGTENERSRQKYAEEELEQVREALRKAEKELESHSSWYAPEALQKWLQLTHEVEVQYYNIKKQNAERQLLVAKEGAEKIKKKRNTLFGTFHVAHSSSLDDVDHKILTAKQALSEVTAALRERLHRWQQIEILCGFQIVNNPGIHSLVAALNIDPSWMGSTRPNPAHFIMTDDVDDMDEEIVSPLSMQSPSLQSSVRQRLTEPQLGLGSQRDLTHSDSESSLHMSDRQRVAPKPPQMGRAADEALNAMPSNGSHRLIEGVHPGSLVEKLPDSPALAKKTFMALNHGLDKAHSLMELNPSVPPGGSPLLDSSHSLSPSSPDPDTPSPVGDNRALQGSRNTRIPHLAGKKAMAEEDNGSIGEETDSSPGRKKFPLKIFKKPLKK
T1 sequence (Q13586 23-685): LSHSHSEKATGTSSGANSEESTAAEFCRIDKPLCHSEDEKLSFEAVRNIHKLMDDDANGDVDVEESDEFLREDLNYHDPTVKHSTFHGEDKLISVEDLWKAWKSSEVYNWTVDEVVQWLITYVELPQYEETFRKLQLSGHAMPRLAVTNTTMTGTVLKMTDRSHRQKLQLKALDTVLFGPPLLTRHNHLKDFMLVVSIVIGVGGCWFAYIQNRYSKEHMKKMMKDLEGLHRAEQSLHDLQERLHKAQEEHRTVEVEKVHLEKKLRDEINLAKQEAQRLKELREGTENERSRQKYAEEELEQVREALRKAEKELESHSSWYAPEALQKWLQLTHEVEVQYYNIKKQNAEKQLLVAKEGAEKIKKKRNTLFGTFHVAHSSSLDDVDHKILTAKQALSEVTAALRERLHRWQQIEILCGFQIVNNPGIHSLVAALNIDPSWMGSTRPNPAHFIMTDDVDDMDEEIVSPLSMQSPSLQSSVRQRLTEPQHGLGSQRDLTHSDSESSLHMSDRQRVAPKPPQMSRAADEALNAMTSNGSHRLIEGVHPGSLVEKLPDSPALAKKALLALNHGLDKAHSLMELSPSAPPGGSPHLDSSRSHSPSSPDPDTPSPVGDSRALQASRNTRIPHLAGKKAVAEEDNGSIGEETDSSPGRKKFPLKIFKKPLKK
T2 sequence (Q13586 23-685 limits assumed): as the sequence (Q13586 23-685) above

Row | Molecule | peak of Ca^2+ release caused by ionomycin in MEFs from KO^Ex2 mice compared to WT [1] [%] | binding result [2] | binding result [3]
1 | N-terminally truncated endogenous mouse PLA2g6(L) of KO^Ex2 mice (from UniProt P97819 179-807) (enzyme) | 60 |  | 
2 | B1 |  | no binding | no binding
